Patent US8124332B2, “Methods of using sIP-10, CD26 inhibitors and CXCR3 levels in a sample to assess clearance of infection, response to interferon therapy, and treating chronic infections” (Institut Pasteur, priority 2006, dated 2012)

What was measured:
[1] = system: plasma DPP activity (X-prolyl DPP); settings: plasma of patients with HCV infection
CXCR3 [2] = target: T1, CXCR3 (Homo sapiens, UniProt P49682); experiment: Receptor internalization in primary PBMCs; format: cell-based; parameters: endogenous in cells; host or cells: primary PBMCs
T1 sequence (P49682 1-368): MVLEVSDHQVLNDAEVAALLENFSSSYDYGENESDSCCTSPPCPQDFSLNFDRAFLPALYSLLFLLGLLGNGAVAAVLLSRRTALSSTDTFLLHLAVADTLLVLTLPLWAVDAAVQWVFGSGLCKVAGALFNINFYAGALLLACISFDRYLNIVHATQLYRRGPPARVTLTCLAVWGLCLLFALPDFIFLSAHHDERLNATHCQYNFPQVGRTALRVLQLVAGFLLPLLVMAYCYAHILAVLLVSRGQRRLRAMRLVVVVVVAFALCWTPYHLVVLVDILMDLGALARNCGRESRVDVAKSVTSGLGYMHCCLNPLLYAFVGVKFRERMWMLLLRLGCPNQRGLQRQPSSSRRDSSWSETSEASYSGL
Description: (§1) In order to test the hypothesis, it was necessary to generate novel reagents. First, recombinant full length CXCL10 (1-77) was exposed to recombinant DPP4 and cleavage was monitored by SELDI mass spectroscopy (FIG. 18A). […] Next, the inventors performed in vitro studies confirming that CXCL10 (1-77) but not CXCL10 (3-77) is capable of: (i) directing the migration of CXCR3^+ cells (FIG. 18B); (ii) mediating receptor internalization in primary PBMCs (not shown); and (iii) triggering a Ca^++ flux in CHO cells transfected with a CXCR3 expressing plasmid (FIGS. 18C, 18D). […] To date, however, there has been no in vivo evidence to support a role for CXCL10 antagonism in disease pathogenesis. In part, the challenge in establishing in vivo evidence of this mechanism of immune regulation is due to the inability to discriminate the two forms of the chemokine by a sensitive, immune-based assay.

CXCR3+ cells = experiment: Lymphocyte chemotaxis assay; format: cell-based, human; settings: PHA-T blasts, chemokine in bottom chamber, 2 hours at 37° C.
CXCR3 [3] = target: T1, CXCR3; experiment: Ca++ flux in CHO cells transfected with a CXCR3 expressing plasmid; format: cell-based; parameters: transfected with a plasmid encoding the full-length open reading frame of CXCR3; expressed in transfected cells; plasmid from Dr. C P Tensen, Leiden
Description: as §1, with “In part, the challenge in establishing in vivo evidence of this mechanism of immune regulation is due to the inability to discriminate the two forms of the chemokine by a sensitive, immune-based assay.” left out
To generate CXCL10 (3-77), recombinant human CXCL10 (Peprotech, Rocky Hill, N.Y. USA) was incubated with recombinant DPP4 (Sigma) in a 100 mM Tris-HCL pH 8 solution, for 2 h at 37° C. […] Arrays were incubated and washed as per manufacturers instructions and analyzed using the ProteinChip System Series 4000 (Ciphergen). […] Data were analyzed using CiphergenExpress Software. […] Lymphocytes were allowed to migrate for 2 hours at 37° C. and cells in the bottom chamber were counted using a Guava cytometer (Guava Technologies, C A, USA). Calcium-flux assays: Increased intracellular [Ca^2+] in response to CXCR3 signaling were monitored by FACS. […] Ca^++ release was measured using a Canto II Cytometer. […]

Substance: isoleucine-proline-isoleucine [IPI]
- inhibition of the enzymatic activity (plasma DPP activity) [1]: > 98%

Substance: CXCL10 (1-77): recombinant full length secreted human CXCL10, agonist form
- mediating receptor internalization (CXCR3 [2]): capable
- directing the migration of CXCR3+ cells (CXCR3+ cells): capable
- triggering a Ca++ flux (CXCR3 [3]; CHO cells transfected with CXCR3): capable

Substance: CXCL10 (3-77): NH2-terminal truncated CXCL10 generated by DPP4 cleavage of two amino acids, antagonist form
- antagonism of CXCL10 (1-77) induced Ca++ mobilization (CXCR3 [3]; 5 min pre-treatment, then CXCL10 (1-77)): antagonized
